Data set [1] concerns the target MamAΔ41 from Desulfovibrio magneticus RS-1 (wild type) (Desulfovibrio magneticus RS-1). The experiment in a line: SEC; Superdex 200, buffer E (10 mM HEPES pH 7.5, 0.5 M NaCl, 5 mM βME); sizes from elution volumes against a standard calibration curve. Background: SEC sorts molecules by how far they enter the pores of the column.
For data set [2], the target named is MamAΔ41 RS-1 TM (triple mutant E140A, K141A, E143A) (Desulfovibrio magneticus RS-1). The data set is described as above.
For data set [3] the target is unchanged. Briefly: crystal structure; X-ray, 2.88 Å, space group I4; crystals from 0.1 M Tris pH 8.1, 0.75 M sodium potassium tartrate, 0.5% PEG monomethyl ether 5000; six monomers as two trimeric rings in the asymmetric unit.
Data set [4] deals with the molecule itself. Briefly: SEC; Superdex 200; sizes from elution volumes against protein markers; buffer for these proteins not stated.

“And” between values parts separate entries of the source, which are not always exact repeats. Equal values may be shown once.

A word on the stoichiometry N: it is the number of molecules, sites or subunits per partner or assembly. Molecule “MamAΔ41 from Desulfovibrio magneticus RS-1 (wild type) (domain or fragment)” had a stoichiometry N in data set [1] of 8. In the case of “MamAΔ41 RS-1 TM (triple mutant E140A, K141A, E143A) (domain or fragment)”, the stoichiometry N in data set [2] is 13 and 8; in data set [3] it was 3.

B1: MamAΔ41 from Magnetospirillum gryphiswaldense MSR-1 (domain or fragment, UniProt Q93DY9 42-217, looked up)
chain: DDIRQVYYRDKGISHAKAGRYSEAVVMLEQVYDADAFDVEVALHLGIAYVKTGAVDRGTELLERSIADAPDNIKVATVLGLTYVQVQKYDLAVPLLVKVAEANPVNFNVRFRLGVALDNLGRFDEAIDSFKIALGLRPNEGKVHRAIAYSYEQMGSHEEALPHFKKANELDERSAV
notes: MamA of Magnetospirillum gryphiswaldense MSR-1, Δ41 mutant (the putative N-terminal TPR repeat removed); Trimer by SEC; also called MamAΔ41_(MSR-1)
Consider B1, for which the “stoichiometry N” value in data set [4] was found to be 3.
